This is an account of results in US20240409645A1.

Assay [1] concerns the target cynomolgus monkey IL-2Rγ/CD132 subunit (cynomolgus monkey). The assay is described as follows: ELISA, monovalent; EC50 cyno vs human subunit. On the technique in general: In an ELISA, binding on a coated surface is turned into a signal by an enzyme label.
Assay [2] shares this target. Description: ELISA, monovalent VHH-hFc.
Assay [3] deals with T1, human common cytokine receptor γ-chain (γc; IL-2Rγ; CD132), recombinant protein (human) (UniProt P31785).
T1 sequence: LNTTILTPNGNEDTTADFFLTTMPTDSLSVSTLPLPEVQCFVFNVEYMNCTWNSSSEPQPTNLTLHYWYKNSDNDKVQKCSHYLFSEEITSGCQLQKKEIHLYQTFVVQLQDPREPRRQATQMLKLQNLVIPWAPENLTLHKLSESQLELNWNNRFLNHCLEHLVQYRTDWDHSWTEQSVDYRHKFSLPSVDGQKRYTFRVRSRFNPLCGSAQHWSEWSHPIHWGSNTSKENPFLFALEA
The assay is described as follows: ELISA, monovalent VHH-hFc.

For the next assay, the target named is T2, mouse IL-2Rγ (mouse) (UniProt P34902).
T2 sequence (looked up): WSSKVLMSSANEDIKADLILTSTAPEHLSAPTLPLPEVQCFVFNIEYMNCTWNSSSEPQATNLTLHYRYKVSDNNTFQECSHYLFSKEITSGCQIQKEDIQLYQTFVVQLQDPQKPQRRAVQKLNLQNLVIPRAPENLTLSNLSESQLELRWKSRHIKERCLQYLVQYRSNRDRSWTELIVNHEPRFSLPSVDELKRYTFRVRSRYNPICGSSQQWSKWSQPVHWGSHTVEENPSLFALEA
Description: P.E. binding ELISA.

The target in a further assay is T3, mouse IL-2Rβ (mouse) (UniProt P16297).
T3 sequence (looked up): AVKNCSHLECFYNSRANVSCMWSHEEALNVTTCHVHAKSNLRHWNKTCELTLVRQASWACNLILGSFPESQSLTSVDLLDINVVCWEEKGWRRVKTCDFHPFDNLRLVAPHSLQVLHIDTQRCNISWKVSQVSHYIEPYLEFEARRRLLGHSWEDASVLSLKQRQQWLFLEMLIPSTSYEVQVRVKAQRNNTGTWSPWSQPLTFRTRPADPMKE
Description: P.E. binding ELISA, mouse IL-2Rβ coated.

In assay [4] the target is T4, mouse common cytokine receptor γ-chain (IL-2Rγ) (mouse) (UniProt P34902).
T4 sequence (looked up): T2 sequence (looked up)
The assay is described as follows: P.E. binding ELISA.

Positions count from the first letter of the chain named.

Chain of cynomolgus monkey IL-2Rγ/CD132 subunit (cynomolgus monkey) (chain, as listed by the source): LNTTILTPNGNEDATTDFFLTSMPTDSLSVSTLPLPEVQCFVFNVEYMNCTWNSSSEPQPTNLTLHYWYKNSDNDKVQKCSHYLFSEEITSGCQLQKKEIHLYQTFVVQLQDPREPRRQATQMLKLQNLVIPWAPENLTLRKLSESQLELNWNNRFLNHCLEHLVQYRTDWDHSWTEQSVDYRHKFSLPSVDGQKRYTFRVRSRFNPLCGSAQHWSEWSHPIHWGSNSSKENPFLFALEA

B1: 38-MP07A11 VHH-hFc, monospecific monovalent (Fc fusion, part only; not given: Both Fc arms and linker, not shown: another chain or arm of the molecule; a dimerising Fc or GST; small tags and cut ends)
VHH: QVQLVESGGGLVQAGGSLRLSCAASGRSLSRDAMGWFRQAPGKEREFVAVMSWGGDTFYTDSVEGRFTFSRDNAKNAVYLEMNDLQPEDTAVYYCAAAPTSFATTAYSSSNSYSYWGRGTQVTVSS
B1 registered a Fold change in assay [1] of 1.5 fold. The figures for the concentration for a half-maximal effect (EC50) in assay [2] and in assay [3] were 160 pM and 107 pM, respectively.

B2: 35-MP07G01 VHH (periplasmic extract) (VHH)
VHH: QVQLQESGGGLVQGGGSLRLSCAASGGIFSSYAMGWFRQAPGKEREFVAAISRSGRSTNYADSVKGRFTISRDNAKSTVYLQMNSLKPEETAVYYCAAGRYYNSAYDPSPGDFGSWGHGTQVTVSS
On to B2, for which, in the assay with mouse IL-2Rγ (mouse), the OD450 nm is 0.045 OD450 nm.

B3: 29-MP04H02 VHH (periplasmic extract) (VHH)
VHH: QVQLVESGGGLVQAGGSLRLACVASGLTFDNYYMGWFRQAPGKEREFVAGIIWNGDHTAYADSIKGRFTISRDNAKNTAYLRMNSLKPEDTAVYYCAATFWIERATTPDIGQYAYWGQGTQVTVSS
As to B3, the OD450 nm with mouse IL-2Rγ (mouse) came to 0.05 OD450 nm.

B4: FJ1427 P035MP06A08 (VHH)
VHH: EVQLVESGGGLVQAGESLRLSCAASGQYFSTYSMAWFRRTPGKEREFVTIISESGGIKEYVDSVKGRFTVSRDNAKNTVYLQMNSLKPEDTAVYYCAAARDWFARNEYQYDYWGQGTQVTVSS
In the assay with mouse IL-2Rβ (mouse), B4 yielded an OD450 nm (P.E. binding ELISA) of 0.047 OD450 nm.

B5: FJ1427_P035MP06F09 (VHH)
VHH: QVQLVESGGGLVQAGGSLTLSCAASGRAFSNYPVGWFRQAPGKEREFVAAITWLSGSTLYADSVEGRFTISRDNAKNTVYLLMSSLKPEDTALYFCAAALKTITRGQNDYSYWGQGTQVTVSS
B5 registered an OD450 nm (P.E. binding ELISA) in the assay with mouse IL-2Rβ (mouse) of 0.046 OD450 nm.

B6: FJ1427_P035MP04F12 (VHH)
VHH: QVQLQESGGGWVQVGESLRLSCVPSGRTFVSGIMGWFRQAPGKEREFVARIILNNNSTRYTDSVKGRFTISRDSAKNTMYLQMNTLRPEDTAVYYCAARDRYGSGNSLSPSAYDYWGQGTQVTVSS
As for B6, the PE binding ELISA OD in assay [4] is 0.049 OD450 nm.

B7: FJ1427_P035MP07C02 (VHH)
VHH: B6 VHH with Q1E, Q5V, V23A, A40T
In turn, B7 returned a PE binding ELISA OD in assay [4] of 0.044 OD450 nm.

B8: 32-MP04A08 VHH (periplasmic extract) (VHH)
VHH: QVQLVESGGGLVQAGGSLRLSCAASGRTFGSTAVGWFRQVPGKEREFVSAINRSGSATTYADSVKGRFTISRDNAKNTVYLQMNSLTPEDTGVYYCAADSLPYGRPYYFQRSAGEYDYWGQGTQVTVSS
B8 displayed an OD450 nm in the assay with mouse IL-2Rγ (mouse) of 0.05 OD450 nm.

B9: 27-MP04G01 VHH (periplasmic extract) (VHH)
VHH: QVQLVESGGGLVQAGGSLTLSCAAPGRTFGTDVVGWFRQAPGKEREFVASISRSGDGIYYDDSVKGRFTISRNNAWNTVNLQMNSLKVEDTAVYYCAAGDGWSTYDYWGQGTQVTVSS
As to B9, the OD450 nm in the assay with mouse IL-2Rγ (mouse) came to 0.048 OD450 nm.

B10: 37-MP07F09 VHH-hFc, monospecific monovalent (Fc fusion, part only; not given: Both Fc arms and linker, not shown: another chain or arm of the molecule; a dimerising Fc or GST; small tags and cut ends)
VHH: QVQLVESGGGLVQAGGSLRLSCAASGRTLSRYAMGWFRQAPGKEREYVAIDSWGGDTFYADSVEGRFTFSRDNAKNEVYLQMNSLQPEDTAVYYCAGAPTSFATTAYSSSNSYRYWGQGTQVTVSS
On to B10, for which the Fold change in assay [1] is 1.2 fold. Moreover, the EC50 (in general, the concentration needed to bring the measured effect to its halfway point) in assay [2] came to 97 pM; in assay [3], 81 pM.
